# Experimental data published in US20250179205A1 (Hoffmann-La Roche, published 2025).
# B1: P1AA9663 CD40 × FAP (28H1) (2 + 2) (bispecific antibody, human IgG1, kappa, L234A L235A)
# heavy: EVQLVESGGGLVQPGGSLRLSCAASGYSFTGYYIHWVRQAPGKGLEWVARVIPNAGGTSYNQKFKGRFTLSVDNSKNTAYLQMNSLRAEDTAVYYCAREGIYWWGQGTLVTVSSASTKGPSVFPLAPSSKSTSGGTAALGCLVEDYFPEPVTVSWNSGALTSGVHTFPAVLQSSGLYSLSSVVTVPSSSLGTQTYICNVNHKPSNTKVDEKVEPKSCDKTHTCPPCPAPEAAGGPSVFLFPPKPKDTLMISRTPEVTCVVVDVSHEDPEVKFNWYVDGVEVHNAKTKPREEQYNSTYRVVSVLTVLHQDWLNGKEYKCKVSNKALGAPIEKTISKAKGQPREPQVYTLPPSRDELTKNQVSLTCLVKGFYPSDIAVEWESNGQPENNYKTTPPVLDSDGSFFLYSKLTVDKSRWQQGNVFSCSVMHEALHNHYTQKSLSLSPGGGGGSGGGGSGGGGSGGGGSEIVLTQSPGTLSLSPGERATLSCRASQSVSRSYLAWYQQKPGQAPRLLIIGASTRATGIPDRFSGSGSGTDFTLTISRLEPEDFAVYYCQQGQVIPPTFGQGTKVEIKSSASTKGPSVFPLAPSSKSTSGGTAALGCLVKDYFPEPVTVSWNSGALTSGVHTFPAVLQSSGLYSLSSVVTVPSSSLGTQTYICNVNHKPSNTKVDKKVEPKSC
# light 1: DIQMTQSPSSLSASVGDRVTITCRSSQSLVHSNGNTFLHWYQQKPGKAPKLLIYTVSNRFSGVPSRFSGSGSGTDFTLTISSLQPEDFATYFCSQTTHVPWTFGQGTKVEIKRTVAAPSVFIFPPSDRKLKSGTASVVCLLNNFYPREAKVQWKVDNALQSGNSQESVTEQDSKDSTYSLSSTLTLSKADYEKHKVYACEVTHQGLSSPVTKSFNRGEC
# light 2: EVQLLESGGGLVQPGGSLRLSCAASGFTFSSHAMSWVRQAPGKGLEWVSAIWASGEQYYADSVKGRFTISRDNSKNTLYLQMNSLRAEDTAVYYCAKGWLGNFDYWGQGTLVTVSSASVAAPSVFIFPPSDEQLKSGTASVVCLLNNFYPREAKVQWKVDNALQSGNSQESVTEQDSKDSTYSLSSTLTLSKADYEKHKVYACEVTHQGLSSPVTKSFNRGEC
# notes: bivalent for CD40 and for FAP; also called CD40 × FAP 2 + 2; huCD40-28H1
# B2: P1AD4465 CD40 × DP47 (4 + 2) (bispecific antibody)
# heavy: not shown
# light 1: B1 light 1
# light 2: not shown
# notes: also called huCD40-DP47
# B3: P1AE0816 CD40 IgG1_LALAPG antibody (control) (antibody, V domains shown)
# VH: QVQLVQSGAEVKKPGASVKVSCKASGYSFTGYYIHWVRQAPGQSLEWMGRVIPNNGGTSYNQKFQGRVTISVDKSISTAYMELSSLRSEDTAVYYCAREGIYWWGHGTTVTVSS
# VL: DVVVTQSPLSLPVTPGEPASISCRSSQSLVHSNGNTFLHWYLQKPGQSPQLLIYTVSNRFSGVPDRFSGSGSGTDFTLKISRVEAEDVGVYFCSQTTHVPWTFGGGTKLEIKR
# notes: huIgG1 LALA PG; control for acceptor framework 1
# What was measured:
# [1] = target: T1, human fibroblast activation protein (huFAP) (human, UniProt Q12884 1-760); experiment: flow cytometry, NIH/3T3-huFAP clone 19 cells, PE anti-human Fc F(ab')2
# T1 construct: expressed on transfected NIH/3T3-huFAP clone 19 cells; also called human FAP
# Protocol: (§1) NIH/3T3-huFAP clone 19 and NIH/3T3-mFAP clone 26 were generated by the transfection of the mouse embryonic fibroblast NIH/3T3 cell line (ATCC CRL-1658) with the expression vector pETR4921 to express under 1.5 μg/mL Puromycin selection huFAP or mFAP, respectively.
# (§2) NIH/3T3-huFAP, NIH/3T3-mFAP or NIH/3T3-wt cells were cultured with 1× Dulbecco's Modified Eagle's Medium (DMEM) (Gibco, Cat. No. 42430-025) supplemented with 10% Fetal Bovine Serum (FBS) (life technologies, Cat. No. 16140, Lot No. 1797306A). For the NIH/3T3-huFAP and NIH/3T3-mFAP cells 1.5 μg/mL Puromycin (Gibco, Cat. No. A11138-03) was added to the medium for selection of FAP-expressing cells. NIH/3T3 cells were removed from the plate by using enzyme-free Cell Dissociation Buffer (Gibco, Cat. No. 13151014). 0.3×10⁵ NIH/3T3-huFAP clone 19, NIH/3T3-mFAP clone 26 or NIH/3T3-wt were added in 200 μl of 1×DMEM 10% FBS to each well of a round-bottom 96-well plate (Greiner Bio-One, CELLSTAR®, Cat. No. 650185). Plates were centrifuged 5 minutes at 1700 rpm and supernatants were flicked off. Cells were washed once with 200 μL of 4° C. cold FACS buffer (eBioscience, Cat. No. 00-4222-26). All samples were resuspended in 50 μL/well of 4° C. cold FACS buffer containing the bispecific antigen binding molecules (primary antibody) or isotype control antibody DP47 at the indicated range of concentrations (in duplicates) and incubated for 120 minutes at 4° C. Afterwards the cells were washed three times with 200 μL 4° C. cold FACS buffer. Cells were further stained with 25 μL/well of 4° C. cold secondary antibody solution (1:50 dilution of secondary antibody) containing R-Phycoerythrin (PE) conjugated AffiniPure F(ab′)₂ Fragment Goat Anti-Human IgG, Fcγ Fragment Specific (Jackson ImmunoResearch, Cat. No. 109-116-098) and incubated for 60 minutes at 4° C. in the dark. Cells were washed with 200 μl FACS buffer and resuspended in 85 μL/well FACS-buffer containing 0.2 μg/mL DAPI (Roche, Cat. No. 10236276001) and acquired the same day using 5-laser LSR-Fortessa (BD Bioscience with DIVA software). Data analysis was performed using the FlowJo version 10 software (FlowJo LLC).
# [2] = target: T2, mouse fibroblast activation protein (mFAP) (mouse, UniProt P97321 1-761); experiment: flow cytometry on NIH/3T3-mFAP cells (3T3_mFAP), PE-labelled anti-human IgG Fcgamma F(ab')2 secondary, MFI baseline corrected
# T2 construct: expressed on transfected NIH/3T3-mFAP clone 26 cells; also called murine FAP; mouse FAP
# Protocol: as §1, §2
# [3] = target: T1, human fibroblast activation protein …; experiment: flow cytometry on NIH/3T3-huFAP clone 19 cells, PE-labelled anti-human IgG Fcgamma F(ab')2 secondary, MFI baseline corrected
# Protocol: as §1
# as §2, with “Data analysis was performed using the FlowJo version 10 software (FlowJo LLC).” left out
# human CD40 [4] = target: T3, human CD40 (human, UniProt P25942 21-277); experiment: flow cytometry, Daudi cells, PE anti-human Fc F(ab')2
# T3 construct: on Daudi cells, Raji cells, human B cells or HEK-Blue CD40L cells; also called hu CD40; CD40 receptor
# Protocol: The binding to cell surface CD40 was tested using Daudi cells, a human B lymphoblast cell line with high expression levels of human CD40 (ATCC CCL-213). Daudi cells were cultured with 1× Dulbecco's Modified Eagle's Medium (DMEM) (Gibco, Cat. No. 42430-025) supplemented with 10% Fetal Bovine Serum (FBS) (life technologies, Cat. No. 16140, Lot No. 1797306A). 0.3×10⁵ Daudi cells were added in 200 μl of 1×DMEM with 10% FBS to each well of a round-bottom 96-well plate (Greiner Bio-One, CELLSTAR®, Cat. No. 650185). Plates were centrifuged 5 minutes at 1700 rpm and supernatants were flicked off. Cells were washed once with 200 μL of 4° C. cold FACS buffer (eBioscience, Cat. No. 00-4222-26). All samples were resuspended in 50 μL/well of 4° C. cold FACS buffer containing the bispecific antigen binding molecules (primary antibody) or isotype control antibody DP47 at the indicated range of concentrations (in duplicates) and incubated for 120 minutes at 4° C. Afterwards the cells were washed three times with 200 μL 4° C. cold FACS buffer. Cells were further stained with 25 μL/well of 4° C. cold secondary antibody solution (1:50 dilution of secondary antibody) containing R-Phycoerythrin (PE) conjugated AffiniPure F(ab′)₂ Fragment Goat Anti-Human IgG, Fcγ Fragment Specific (Jackson ImmunoResearch, Cat. No. 109-116-098) and incubated for 60 minutes at 4° C. in the dark. Cells were washed with 200 μl FACS buffer and resuspended in 85 μL/well FACS-buffer containing 0.2 μg/mL DAPI (Roche, Cat. No. 10236276001) and acquired the same day using a 5-laser LSR-Fortessa (BD Bioscience with DIVA software). Data analysis was performed using the FlowJo version 10 software (FlowJo LLC).
# [5] = target: T4, Human CD40 extracellular domain with C-terminal His-AviTag (human); experiment: SPR (Biacore), antibody captured by anti-human F(ab')2, CD40 ECD as analyte, 1:1 model
# T4 construct: analyte in solution in the SPR assays; also called recombinant human CD40_ECD
# Protocol: Around 12000 resonance units (RU) of the capturing system (10 μg/ml goat anti human F(ab)′₂; Order Code: 28958325; GE Healthcare Bio-Sciences AB, Sweden) were coupled on a CM5 chip (GE Healthcare BR-1005-30) at pH 5.0 by using an amine coupling kit supplied by the GE Healthcare. The sample and system buffer was PBS-T (10 mM phosphate buffered saline including 0.05% Tween20) pH 7.4. The flow cell was set to 25° C.—and the sample block set to 12° C.—and primed with running buffer twice. The antibody was captured by injecting a 50 nM solution for 30 sec at a flow of 5 μl/min. Association was measured by injection of human CD40 extra cellular domain or cynomolgus monkey CD40 extracellular domain in various concentrations in solution for 300 sec at a flow of 30 μl/min starting with 300 nM in 1:3 dilutions. The dissociation phase was monitored for up to 1200 sec and triggered by switching from the sample solution to running buffer. The surface was regenerated by 60 sec washing with a Glycine pH 2.1 solution at a flow rate of 30 μl/min. Bulk refractive index differences were corrected by subtracting the response obtained from a goat anti human F(ab′)₂ surface. Blank injections are also subtracted (=double referencing). For calculation of apparent KD and other kinetic parameters the Langmuir 1:1 model was used. The apparent Kd was calculated using the BIACORE® B4000 evaluation software (version 1.1).
# human CD40 [6] = target: T3, human CD40; experiment: flow cytometry, Raji cells, Alexa488 anti-huIgG
# Protocol: CD40 positive cells (Raji cells) were detached from the culture bottle using Trypsin and were counted using a Casy cell counter. After pelleting at 4° C., the cells were resuspended in FACS Buffer (2.5% FCS in PBS), adjusted to 2.0E+06 cells/mL, and dispensed to 96-well PP V-bottom-plates (25 μL/well=5.0E+04Zellen/well).
# The CD40 specific antibodies were adjusted to 20 μg/mL in FACS buffer, resulting in a final concentration of 10 μg/mL. […] were added to 25 μl cell suspension and incubated for 1 h at 4° C. The cells were then washed twice in FACS buffer. After washing, the cells were resuspended in 50 μL FACS-buffer containing secondary antibody (<huIgG>-Alexa488, c=10 μg/mL) and incubated 1 h at 4° C. The cells were then washed twice in FACS buffer and resuspended in 70 μl/well FACS buffer for measurement using a FACS Canto (BD, Pharmingen).
# T4 sequence (chain, as listed by the source limits assumed): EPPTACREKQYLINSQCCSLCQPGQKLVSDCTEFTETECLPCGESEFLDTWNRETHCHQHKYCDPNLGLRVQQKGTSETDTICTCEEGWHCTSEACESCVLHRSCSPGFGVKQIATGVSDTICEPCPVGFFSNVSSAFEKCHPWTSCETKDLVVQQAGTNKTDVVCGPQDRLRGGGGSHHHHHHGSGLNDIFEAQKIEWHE
# T2 sequence (P97321 whole entry): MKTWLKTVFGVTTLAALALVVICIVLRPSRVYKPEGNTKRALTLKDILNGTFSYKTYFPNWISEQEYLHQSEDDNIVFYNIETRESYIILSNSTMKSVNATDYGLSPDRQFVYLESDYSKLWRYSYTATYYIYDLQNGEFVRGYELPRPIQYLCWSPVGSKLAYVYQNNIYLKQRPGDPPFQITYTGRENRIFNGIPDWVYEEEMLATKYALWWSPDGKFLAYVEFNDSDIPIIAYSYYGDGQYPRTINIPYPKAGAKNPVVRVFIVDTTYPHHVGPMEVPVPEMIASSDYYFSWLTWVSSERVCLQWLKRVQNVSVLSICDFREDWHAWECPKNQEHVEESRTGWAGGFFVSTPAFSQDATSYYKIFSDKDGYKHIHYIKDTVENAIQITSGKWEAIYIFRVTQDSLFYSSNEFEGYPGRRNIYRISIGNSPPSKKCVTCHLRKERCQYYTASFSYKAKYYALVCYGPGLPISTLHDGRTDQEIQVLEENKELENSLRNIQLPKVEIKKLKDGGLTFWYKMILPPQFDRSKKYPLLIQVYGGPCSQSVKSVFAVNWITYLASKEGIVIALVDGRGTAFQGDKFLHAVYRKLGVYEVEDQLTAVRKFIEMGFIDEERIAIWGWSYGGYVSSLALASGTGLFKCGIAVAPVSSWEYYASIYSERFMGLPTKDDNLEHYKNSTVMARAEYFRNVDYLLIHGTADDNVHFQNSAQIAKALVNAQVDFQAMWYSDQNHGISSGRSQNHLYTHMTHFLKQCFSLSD
# T3 sequence (P25942 21-277 limits assumed): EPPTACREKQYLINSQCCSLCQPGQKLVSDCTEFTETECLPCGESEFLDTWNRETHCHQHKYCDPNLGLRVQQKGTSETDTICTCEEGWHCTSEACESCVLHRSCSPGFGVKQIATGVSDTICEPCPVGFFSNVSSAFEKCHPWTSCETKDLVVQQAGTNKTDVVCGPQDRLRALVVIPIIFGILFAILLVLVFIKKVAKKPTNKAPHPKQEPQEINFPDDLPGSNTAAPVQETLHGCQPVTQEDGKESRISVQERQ
binder,measurement,setting,value
B1,EC50,[1],3.65 nM
same,EC50 (read off the curve),[2],~4 nM
B2,binding result,[3],no binding (tested: 500 nM)
same,EC50,human CD40 [4],0.036 nM
same,binding result,[2],no binding (tested: 500 nM)
B3,Kd,[5],8.7 nM
same,koff,[5],0.0219 s⁻¹
same,kon,[5],2.53e+06 M⁻¹ s⁻¹
same,EC50,human CD40 [6],0.09 µg/mL
